According to patent US20240287172A1 (SCIRHOM, published 2024):
Positions count from the first letter of the chain named.

T1: dog iRhom2 full length wild type, T7-tagged (dog, UniProt Q00M95 1-827)
T1 construct: whole, on cells; on MEF-DKO cells; also called Dog-iR2-FL-WT-T7
T1 sequence: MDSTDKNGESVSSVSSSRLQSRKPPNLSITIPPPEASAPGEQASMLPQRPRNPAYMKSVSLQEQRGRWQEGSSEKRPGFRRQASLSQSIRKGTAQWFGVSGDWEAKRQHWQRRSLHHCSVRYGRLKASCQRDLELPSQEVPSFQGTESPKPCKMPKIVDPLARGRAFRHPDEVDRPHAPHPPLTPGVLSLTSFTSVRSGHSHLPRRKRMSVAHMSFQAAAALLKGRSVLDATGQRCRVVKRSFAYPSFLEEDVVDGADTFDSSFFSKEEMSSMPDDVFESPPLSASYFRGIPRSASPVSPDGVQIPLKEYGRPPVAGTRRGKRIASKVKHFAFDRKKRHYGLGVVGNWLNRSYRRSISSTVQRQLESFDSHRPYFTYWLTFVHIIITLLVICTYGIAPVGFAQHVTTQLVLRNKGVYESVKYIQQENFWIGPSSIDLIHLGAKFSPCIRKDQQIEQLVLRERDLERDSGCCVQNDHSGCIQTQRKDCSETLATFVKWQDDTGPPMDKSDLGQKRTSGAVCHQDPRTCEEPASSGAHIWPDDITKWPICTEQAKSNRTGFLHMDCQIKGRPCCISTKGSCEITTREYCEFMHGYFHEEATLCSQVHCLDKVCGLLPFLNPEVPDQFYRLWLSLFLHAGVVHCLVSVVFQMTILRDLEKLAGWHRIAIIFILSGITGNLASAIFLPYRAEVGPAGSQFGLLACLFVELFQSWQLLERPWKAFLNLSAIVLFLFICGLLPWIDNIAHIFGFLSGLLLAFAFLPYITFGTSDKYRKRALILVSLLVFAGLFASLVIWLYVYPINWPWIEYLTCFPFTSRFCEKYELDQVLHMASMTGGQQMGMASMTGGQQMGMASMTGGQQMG

T2: hiR2-FL-K536-T7 (deletion of K536) (human, UniProt Q6PJF5 1-856)
T2 construct: single amino acid deletion
T2 sequence: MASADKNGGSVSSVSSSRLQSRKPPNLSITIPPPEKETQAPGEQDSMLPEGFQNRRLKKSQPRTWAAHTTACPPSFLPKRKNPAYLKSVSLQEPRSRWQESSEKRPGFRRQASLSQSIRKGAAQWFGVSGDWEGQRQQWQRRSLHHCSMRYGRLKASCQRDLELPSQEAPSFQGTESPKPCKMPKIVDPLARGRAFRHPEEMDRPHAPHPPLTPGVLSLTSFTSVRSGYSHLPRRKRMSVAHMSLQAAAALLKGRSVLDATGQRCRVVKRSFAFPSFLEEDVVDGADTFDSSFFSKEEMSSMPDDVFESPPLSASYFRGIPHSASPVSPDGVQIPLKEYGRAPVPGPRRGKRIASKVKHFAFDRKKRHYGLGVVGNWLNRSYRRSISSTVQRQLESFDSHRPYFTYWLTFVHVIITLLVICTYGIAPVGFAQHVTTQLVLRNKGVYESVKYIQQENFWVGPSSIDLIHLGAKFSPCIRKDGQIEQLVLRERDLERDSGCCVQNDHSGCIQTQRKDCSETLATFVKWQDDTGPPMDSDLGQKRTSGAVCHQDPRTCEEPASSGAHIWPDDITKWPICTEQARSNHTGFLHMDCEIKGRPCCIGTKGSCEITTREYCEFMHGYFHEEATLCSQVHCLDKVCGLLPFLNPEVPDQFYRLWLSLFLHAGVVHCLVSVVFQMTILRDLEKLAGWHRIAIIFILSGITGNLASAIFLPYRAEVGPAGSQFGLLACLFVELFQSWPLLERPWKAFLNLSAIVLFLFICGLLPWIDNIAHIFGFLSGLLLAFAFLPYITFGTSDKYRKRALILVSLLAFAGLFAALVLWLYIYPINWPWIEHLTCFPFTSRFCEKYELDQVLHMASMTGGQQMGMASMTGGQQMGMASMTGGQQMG

B1: antibody 43 (antibody, V domains shown)
VH: QVALKESGPGILQPSQTLSLTCSFSGFSLSTFGMGVGWIRQSSGKGLEWLANIWWDDDKYYNPALKSRLTISKDASKNQAFLKIANVDTADTATYYCARIGNYGSNYWYFDVWGTGTTVTVSS
VL: QIVLTQSPAIMSASPGERVTMTCSANSRISYMYWYQQKPGSSPRLLIYDTSNLASGVPVRFSGSGSGTSYSLTISRMEAEDAATYNCQQWSSYPLTFGAGTKLELK
notes: mouse IgG, kappa light chain; also called clone #43; purified antibody 43
B2: antibody 44 (antibody, V domains shown)
VH: B1 VH with A3T, S42P, G44E, N52H, A75T, A80I, A85T, D91E, A98S
VL: QIVLTQSPAVMSASPGEKVTMTCTASSSVYYMYWYQQTPGSSPRLLIYDTSNLASGVPVRFSGSGSGTSYSLTISRMEAEDAATYYCQQWNTYPLTFGAGTKLELK
notes: mouse IgG, kappa light chain; also called clone #44; purified antibody 44

What was measured:
[1] = biological target: T1, dog iRhom2 full length wild type, …; experiment: FACS, MEF-DKO cells; via representative antibody 16
Description: In brief, immortalized MEF-DKO-EV control cells, MEF-DKO-rhesus-iR2-FL-WT-T7 cells, MEF-DKO-cyno-iR2-FL-WT-T7 cells, MEF-DKO-dog-iR2-FL-WT-T7 cells and MEF-DKO-rabbit-iR2-FL-WT-T7 cells, as well as their respective iRhom1 counterparts, were harvested with 10 mM EDTA in PBS, washed and resuspended in FACS buffer (PBS, 3% FBS, 0.05% sodium azide), and seeded in Nunc U-bottom 96-well plates (Thermo Fisher Scientific, USA) at approximately 3×10⁵ cells per well. To pellet cells and remove supernatants, the plates were centrifuged at 1,500 rpm and 4° C. for 3 minutes. For primary staining, cells were resuspended in 100 μl per well of either FACS buffer alone (controls), mouse monoclonal anti-T7 IgG (Merck Millipore, USA) at 3 μg/ml FACS buffer or the antibodies of the invention also at 3 μg/ml FACS buffer and incubated on ice for 1 hour.
Afterwards, plates were centrifuged at 1,500 rpm and 4° C. for 3 minutes and washed twice with 200 μl per well of FACS buffer. For secondary staining, cells were spun down and resuspended in 100 μl per well of PE-conjugated goat anti-mouse IgG F(ab′)2 detection fragment (Dianova, Germany) diluted 1:100 in FACS buffer. Protected from light, the cell suspensions were incubated on ice for 1 hour. Plates were then centrifuged at 1,500 rpm and 4° C. for 3 minutes and washed three times with 200 μl per well of FACS buffer. Finally, cells were resuspended in 150 μl per well of FACS buffer and analyzed using a BD Accuri™ C6 Plus flow cytometer (Becton Dickinson, Germany).

[2] = biological target: T2, hiR2-FL-K536-T7 (deletion of K536); experiment: FACS on MEF-DKO cells

Binder | binding result [1] | binding result [2]
B1 | binds | no binding (tested: 3 µg/ml)
B2 | binds | no binding (tested: 3 µg/ml)
